Positions count from the first letter of the chain named. Names and notes keep the numbering of the source. Read-outs that look alike come from different tables or passages of the source.
Key:
[1] = biological target: Pertuzumab heavy chain Fab construct (H2) L45P (VH L45P); test: LCCA, SPR tag read-out
[2] = biological target: CAT-2200 heavy chain Fab construct (H1) L45F (VH L45F); test: LCCA, SPR tag read-out
[3] = biological target: CAT-2200 heavy chain Fab construct (H1), wild type; test: LCCA, SPR tag read-out
[4] = biological target: Pertuzumab heavy chain Fab construct (H2) L45A (VH L45A); test: LCCA, SPR tag read-out
[5] = biological target: Pertuzumab heavy chain Fab construct (H2) Q39R (VH Q39R); test: LCCA, SPR tag read-out
[6] = biological target: CAT-2200 heavy chain Fab construct (H1) Q39E (VH Q39E); test: LCCA, SPR tag read-out
Recombinant human IL-17A [7] = biological target: T1, Recombinant human IL-17A (human, UniProt Q16552 20-155, limits assumed); test: SPR
T1 sequence (Q16552 20-155 limits assumed): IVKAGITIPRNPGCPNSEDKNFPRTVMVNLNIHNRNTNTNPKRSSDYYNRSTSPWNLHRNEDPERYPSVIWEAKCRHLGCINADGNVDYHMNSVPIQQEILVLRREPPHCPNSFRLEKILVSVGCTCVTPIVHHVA

Recombinant human IL-17A [8] = biological target: T1, Recombinant human IL-17A; test: SPR; remark: listed apart in the source
[9] = biological target: T2, His-tagged recombinant human CD-19 (human, UniProt P15391 20-291, limits assumed); test: SPR
T2 sequence (looked up): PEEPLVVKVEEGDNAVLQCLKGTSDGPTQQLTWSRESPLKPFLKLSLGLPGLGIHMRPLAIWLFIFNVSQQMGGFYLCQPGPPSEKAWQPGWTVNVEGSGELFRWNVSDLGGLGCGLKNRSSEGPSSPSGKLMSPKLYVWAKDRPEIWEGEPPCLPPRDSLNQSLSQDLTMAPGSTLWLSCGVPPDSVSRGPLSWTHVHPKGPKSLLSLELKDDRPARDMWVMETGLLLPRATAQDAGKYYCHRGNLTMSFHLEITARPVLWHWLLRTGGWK

[10] = biological target: T2, His-tagged recombinant human CD-19; test: SPR; remark: listed apart in the source
[11] = biological target: His-tagged Influenza B Hemagglutinin (B/Brisbane/60/2008) (Influenza B (B/Brisbane/60/2008))
[12] = biological target: T3, His-tagged recombinant human CD-19 (human, UniProt P15391 20-291, limits assumed); test: SPR; remark: listed apart in the source
T3 sequence (looked up): T2 sequence (looked up)

[13] = biological target: T3, His-tagged recombinant human CD-19; test: SPR; remark: listed apart in the source
Recombinant human IL-17A [14] = biological target: T4, Recombinant human IL-17A (human, UniProt Q16552 20-155, limits assumed); test: SPR; remark: listed apart in the source
T4 sequence (Q16552 20-155 limits assumed): as the sequence (Q16552 20-155 limits assumed) above

Recombinant human IL-17A [15] = biological target: T4, Recombinant human IL-17A; test: SPR; remark: listed apart in the source

B1: Pertuzumab kappa light chain construct (L2) P44F, HA-tagged (other, not shown: small tags and cut ends)
light: DIQMTQSPSSLSASVGDRVTITCKASQDVSIGVAWYQQKPGKAFKLLIYSASYRYTGVPSRFSGSGSGTDFTLTISSLQPEDFATYYCQQYYIYPYTFGQGTKVEIKRTVAAPSVFIFPPSDEQLKSGTASVVCLLNNFYPREAKVQWKVDNALQSGNSQESVTEQDSKDSTYSLSSTLTLSKADYEKHKVYACEVTHQGLSSPVTKSFNRGEC
H2L2:H2L1 normalized median ratio (H2L2 part) [1]: 67%
H2L2:H2L1 normalized median scalar value ln(r1/f1) [1]: 0.72
H1L1:H1L2 normalized median ratio (H1L2 part) [2]: 35%
H1L1:H1L2 normalized median ratio (H1L2 part) [3]: 38%
H2L2:H2L1 normalized median ratio (H2L2 part) [4]: 59%
H2L2:H2L1 normalized median scalar value ln(r1/f1) [4]: 0.37

B2: Pertuzumab kappa light chain construct (L2) Q38D, HA-tagged (other, not shown: small tags and cut ends)
light: B1 light with Q38D, F44P
H2L2:H2L1 normalized median ratio (H2L2 part) [5]: 56%
H2L2:H2L1 normalized median scalar value ln(r1/f1) [5]: 0.23
H1L1:H1L2 normalized median ratio (H1L2 part) [6]: 31%

B3: Design 2979 bispecific antibody, System A (CAT-2200 H1/L1 & Pertuzumab H2/L2) (bispecific antibody)
chain 1: not shown
chain 2: NFMLTQPHSVSESPGKTVTISCTRSSGSLANYYVQWYQQRPGSSPTIVIFANNQRPSGVPDRFSGSIDSSSNSASLTISGLKTEDEADYYCQTYDPYSVVFGGGTKLTVLGQPKAAPSVTLFPPSSEELQANKATLVCLISDFYPGAVTVAWKADSSPVKAGVETTTPSKQSNNKYAAESELSLTPEQWKSHRSYSCQVTHEGSTVEKTVAPTECS
chain 3: not shown
chain 4: B1 light with F44P, S131R, V133G, S176R
Kd (Recombinant human IL-17A [7]): 0.31 nM
Difference in H1L1 log(KD) from wild type (Recombinant human IL-17A [8]): -0.03

B4: Design 2979 bispecific antibody, System B (CAT-2200 H1/L1 & SGN-CD19a H2/L2) (bispecific antibody)
chain 1: not shown
chain 2: B3 chain 2
chain 3: not shown
chain 4: EIVLTQSPATLSLSPGERATLSCSASSSVSYMHWYQQKPGQAPRLLIYDTSKLASGIPARFSGSGSGTDFTLTISSLEPEDFAVYYCFQGSVYPFTFGQGTKLEIKRTVAAPSVFIFPPSDEQLKSGTARVGCLLNNFYPREAKVQWKVDNALQSGNSQESVTEQDSKDSTYSLRSTLTLSKADYEKHKVYACEVTHQGLSSPVTKSFNRGEC
Kd (Recombinant human IL-17A [7]): 0.39 nM
Difference in H1L1 log(KD) from wild type (Recombinant human IL-17A [8]): -0.14
Difference in H2L2 log(KD) from wild type [9]: 0.18
Kd [10]: 149 nM

B5: Design 3113 bispecific antibody, System A (CAT-2200 H1/L1 & Pertuzumab H2/L2) (bispecific antibody)
chain 1: not shown
chain 2: B3 chain 2 with V137D, E179S, E181T
chain 3: not shown
chain 4: B1 light with F44P, S131R, V133G, S176R
Kd (Recombinant human IL-17A [7]): 0.39 nM
Difference in H1L1 log(KD) from wild type (Recombinant human IL-17A [8]): -0.14

B6: Design 3113 bispecific antibody, System B (CAT-2200 H1/L1 & SGN-CD19a H2/L2) (bispecific antibody)
chain 1: not shown
chain 2: B3 chain 2 with V137D, E179S, E181T
chain 3: not shown
chain 4: B4 chain 4
Kd (Recombinant human IL-17A [7]): 0.44 nM
Difference in H1L1 log(KD) from wild type (Recombinant human IL-17A [8]): -0.2
Difference in H2L2 log(KD) from wild type [9]: 0.02
Kd [10]: 216 nM

B7: Design 3890 bispecific antibody, System C (CR8071 H1/L1 & SGN-CD19a H2/L2) (bispecific antibody)
chain 1: QVQLVQSGAEVKKPGASVRVSCRASGYIFTESGITWVRQAPGQGLEWMGWISGYSGDTKYAQKLQGRVTMTKDTSTTTAYMELRSLRYDDTAVYYCARDVQYSGSYLGAYYFDYWSPGTLVTVSSASTKGPSVFPLRPSSKSTSGGTAALGCLVKDYFPEPVTVSWNSGALTSGVHTFPAVLKSSGLYSLSSVVTVPSSSLGTQTYICNVNHKPSNTKVDKKVEPKSCDKTHTCPPCPAPELLGGPSVFLFPPKPKDTLMISRTPEVTCVVVDVSHEDPEVKFNWYVDGVEVHNAKTKPREEQYNSTYRVVSVLTVLHQDWLNGKEYKCKVSNKALPAPIEKTISKAKGQPREPQVYVYPPSRDELTKNQVSLTCLVKGFYPSDIAVEWESNGQPENNYKTTPPVLDSDGSFALVSKLTVDKSRWQQGNVFSCSVMHEALHNHYTQKSLSLSPG
chain 2: not shown
chain 3: not shown
chain 4: B4 chain 4 with S120K, Q123R, R130S, G132V, R175S, T177R
Kd [11]: 0.44 nM
Difference in H2L2 log(KD) from wild type [12]: 0.22 log(KD)
Kd [13]: 40.9 nM

B8: Design 3931 bispecific antibody, System A (CAT-2200 H1/L1 & Pertuzumab H2/L2) (bispecific antibody)
chain 1: not shown
chain 2: B3 chain 2 with E179S, E181K
chain 3: not shown
chain 4: B1 light with F44P, V133G, S176D
Kd (Recombinant human IL-17A [14]): 0.44 nM
Difference in H1L1 log(KD) from wild type (Recombinant human IL-17A [15]): -0.07 log(KD)

B9: Design 3931 bispecific antibody, System B (CAT-2200 H1/L1 & SGN-CD19a H2/L2) (bispecific antibody)
chain 1: not shown
chain 2: B3 chain 2 with E179S, E181K
chain 3: not shown
chain 4: B4 chain 4 with R130S, R175D
Kd (Recombinant human IL-17A [14]): 0.29 nM
Difference in H1L1 log(KD) from wild type (Recombinant human IL-17A [15]): 0.11 log(KD)
Difference in H2L2 log(KD) from wild type [12]: 0.09 log(KD)
Kd [13]: 54.9 nM

B10: Design 3967 bispecific antibody, System A (CAT-2200 H1/L1 & Pertuzumab H2/L2) (bispecific antibody)
chain 1: not shown
chain 2: B3 chain 2 with S126D, K133T
chain 3: not shown
chain 4: B1 light with F44P, S121K, Q124R, T178R
Kd (Recombinant human IL-17A [14]): 0.37 nM
Difference in H1L1 log(KD) from wild type (Recombinant human IL-17A [15]): -0.11 log(KD)

B11: Design 3967 bispecific antibody, System B (CAT-2200 H1/L1 & SGN-CD19a H2/L2) (bispecific antibody)
chain 1: not shown
chain 2: B3 chain 2 with S126D, K133T
chain 3: not shown
chain 4: B4 chain 4 with S120K, Q123R, R130S, G132V, R175S, T177R
Kd (Recombinant human IL-17A [14]): 0.38 nM
Difference in H1L1 log(KD) from wild type (Recombinant human IL-17A [15]): -0.13 log(KD)
Difference in H2L2 log(KD) from wild type [12]: 0.27 log(KD)
Kd [13]: 36.1 nM

B12: Design 2901 bispecific antibody, System C (CR8071 H1/L1 & SGN-CD19a H2/L2) (bispecific antibody)
chain 1: B7 chain 1 with R137A, K155T, V181D, K183Q, S191D
chain 2: not shown
chain 3: not shown
chain 4: B4 chain 4 with R130S, R175D
Kd [11]: 0.64 nM
Difference in H2L2 log(KD) from wild type [12]: 0.21 log(KD)
Kd [13]: 41.9 nM

B13: Design 2994 bispecific antibody, System A (CAT-2200 H1/L1 & Pertuzumab H2/L2) (bispecific antibody)
chain 1: not shown
chain 2: B3 chain 2 with E128Q, T135K, E179S, E181Y
chain 3: not shown
chain 4: B1 light with F44P, Q124E, V133D
Kd (Recombinant human IL-17A [14]): 0.45 nM
Difference in H1L1 log(KD) from wild type (Recombinant human IL-17A [15]): -0.08 log(KD)

B14: Design 2994 bispecific antibody, System B (CAT-2200 H1/L1 & SGN-CD19a H2/L2) (bispecific antibody)
chain 1: not shown
chain 2: B3 chain 2 with E128Q, T135K, E179S, E181Y
chain 3: not shown
chain 4: B4 chain 4 with Q123E, R130S, G132D, R175S
Kd (Recombinant human IL-17A [14]): 0.28 nM
Difference in H1L1 log(KD) from wild type (Recombinant human IL-17A [15]): 0.12 log(KD)
Difference in H2L2 log(KD) from wild type [12]: 0.16 log(KD)
Kd [13]: 49.7 nM
